Experimental data reported in US20080146500A1, “Selective Vpac2 Receptor Peptide Agonists” (priority 2004, published 2008).
Like-named read-outs stand apart in the source and are kept apart here. Square brackets hold non-standard residues; d marks the D form. Ends that are not written are not given here. * marks the point of attachment. Hexanoyl = CCCCCC(=O)*; Aib = CC(C)(N)C(=O)O

Tests used:
[1] = Rat serum stability at 37 C, remaining active peptide estimated by EC50,4C/EC50,37C in CHO-VPAC2 cAMP assay
Experimental: The rat serum is stored at 4° C. until use and is used within two weeks.
On Day 0, two 100 μL aliquots of 10 μM peptide in rat serum are prepared by adding 10 μL peptide stock to 90 μL rat serum for each aliquot. 250 kIU aprotinin/mL is added to one of these aliquots. The aliquot is stored with aprotinin at 4° C. The aliquot is stored without aprotinin at 37° C. The aliquots are incubated for […].
On Day 1, after incubation of the aliquots prepared on day 0 for 24 hours, an incubation buffer containing PBS+1.3 mM CaCl2, 1.2 mM MgCl2, 2 mM glucose, and 0.25 mM IBMX is prepared. A plate with 11 serial 5× dilutions of peptide for the 4° C. and 37° C. aliquot is prepared for each peptide studied. […] The plate(s) are washed with cells twice in incubation buffer. The plates are allowed to hold 50 μL incubation media per well for 15 minutes. 50 μL solution per well is transferred to the cells from the plate prepared with 11 serial 5× dilutions of peptide for the 4° C. and 37° C. aliquot for each peptide studied, using the maximal concentrations that are indicated by the primary screen, in duplicate. This step dilutes the peptide concentration by a factor of two. The cells are incubated at room temperature for 30 minutes. The supernatant is removed. 40 μL/well of the DiscoveRx antibody/extraction buffer is added. The cells are incubated on the shaker (300 rpm) for 1 hour. Normal procedure with the DiscoveRx kit is followed. cAMP standards are included in column 12. EC50 values are determined from the cAMP assay data.

[2] = biological target: T1, human VPAC2 (Homo sapiens, UniProt P41587); assay: Alpha screen in vitro potency: human VPAC2-R mediated cAMP generation; format: cell-based; settings: single results or mean of two or more independent runs
T1 construct: expressed in transfected cells
T1 sequence (P41587 24-438): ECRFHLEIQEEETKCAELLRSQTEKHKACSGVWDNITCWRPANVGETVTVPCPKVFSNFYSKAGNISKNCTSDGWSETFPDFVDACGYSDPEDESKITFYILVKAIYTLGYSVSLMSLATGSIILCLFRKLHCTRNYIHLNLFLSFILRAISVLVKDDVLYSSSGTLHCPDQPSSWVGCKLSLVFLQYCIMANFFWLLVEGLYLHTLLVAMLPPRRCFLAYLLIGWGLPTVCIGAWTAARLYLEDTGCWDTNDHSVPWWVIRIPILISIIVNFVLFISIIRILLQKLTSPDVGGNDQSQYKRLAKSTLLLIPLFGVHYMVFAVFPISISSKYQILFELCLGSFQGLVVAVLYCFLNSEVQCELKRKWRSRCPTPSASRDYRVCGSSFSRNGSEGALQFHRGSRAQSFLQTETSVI

[3] = biological target: T1, human VPAC2; assay: Filter binding assay, membranes from stable VPAC2 cell line, 125I-labeled VIP tracer; settings: read-out: Human receptor binding (IC50; nM) VPAC2
Experimental: (§1) For this assay, the solutions and equipment include:
(§2) Presoak solution: 0.5% Polyethyleneamine in Aqua dest.
(§3) Buffer for flushing filter plates: 25 mM HEPES pH 7.4
(§4) Blocking buffer: 25 mM HEPES pH 7.4; 0.2% protease free BSA
(§5) Assay buffer: 25 mM HEPES pH 7.4; 0.5% protease free BSA
(§6) Dilution and assay plate: PS-Microplate, U form
(§7) Filtration Plate Multiscreen FB Opaque Plate; […] Type B Glasfiber filter
(§8) In order to prepare the filter plates, the presoak solution is aspirated by vacuum filtration. The plates are flushed twice with 200 μL flush buffer. 200 μL blocking buffer is added to the filter plate. The filter plate is then incubated with 200 μL presoak solution for 1 hour at room temperature.
(§9) The assay plate is filled with […] (2.5 μg) suspended in assay buffer, 25 μL compound (agonist) in assay buffer, and 25 μL tracer (about 40000 cpm) in assay buffer. The filled plate is incubated for 1 hour with shaking.
(§10) The transfer from assay plate to filter plate is conducted. The blocking buffer is aspirated by vacuum filtration and washed two times with flush buffer. 90 μL is transferred from the assay plate to the filter plate. The 90 μL transferred from assay plate is aspirated and washed three times with 200 μL flush buffer. The plastic support is removed. It is dried for 1 hour at 60° C. 30 μL Microscint is added. The count is performed.
(§11) Values reported are single results or the mean of two or more independent runs.

[4] = biological target: T2, human VPAC1 (Homo sapiens, UniProt P32241); assay: Filter binding assay, membranes from cells transiently transfected with human VPAC1, 125I-labeled VIP tracer; settings: read-out: Human receptor binding (IC50; nM) VPAC1
T2 construct: expressed in transfected cells
T2 sequence (P32241 31-457): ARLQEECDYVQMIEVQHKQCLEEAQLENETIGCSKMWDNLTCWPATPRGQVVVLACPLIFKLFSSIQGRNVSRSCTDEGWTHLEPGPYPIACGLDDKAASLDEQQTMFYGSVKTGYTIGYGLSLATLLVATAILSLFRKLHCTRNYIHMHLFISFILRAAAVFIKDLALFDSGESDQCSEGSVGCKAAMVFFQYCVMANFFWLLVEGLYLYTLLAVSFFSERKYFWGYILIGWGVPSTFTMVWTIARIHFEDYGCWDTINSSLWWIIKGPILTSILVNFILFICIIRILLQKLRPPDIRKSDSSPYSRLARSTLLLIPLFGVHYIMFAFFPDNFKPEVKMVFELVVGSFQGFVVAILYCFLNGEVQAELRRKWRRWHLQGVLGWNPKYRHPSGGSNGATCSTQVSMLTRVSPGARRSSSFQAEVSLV
Experimental: as §1, §2, §3, §4, §5, §6, §7, §8, §9, §10, §11

[5] = biological target: T3, human PAC1 (Homo sapiens, UniProt P41586); assay: Filter binding assay, membranes from cells transiently transfected with human PAC1, 125I-labeled PACAP-27 tracer; settings: read-out: Human receptor binding (IC50; nM) PAC1
T3 construct: expressed in transfected cells
T3 sequence (P41586 21-468): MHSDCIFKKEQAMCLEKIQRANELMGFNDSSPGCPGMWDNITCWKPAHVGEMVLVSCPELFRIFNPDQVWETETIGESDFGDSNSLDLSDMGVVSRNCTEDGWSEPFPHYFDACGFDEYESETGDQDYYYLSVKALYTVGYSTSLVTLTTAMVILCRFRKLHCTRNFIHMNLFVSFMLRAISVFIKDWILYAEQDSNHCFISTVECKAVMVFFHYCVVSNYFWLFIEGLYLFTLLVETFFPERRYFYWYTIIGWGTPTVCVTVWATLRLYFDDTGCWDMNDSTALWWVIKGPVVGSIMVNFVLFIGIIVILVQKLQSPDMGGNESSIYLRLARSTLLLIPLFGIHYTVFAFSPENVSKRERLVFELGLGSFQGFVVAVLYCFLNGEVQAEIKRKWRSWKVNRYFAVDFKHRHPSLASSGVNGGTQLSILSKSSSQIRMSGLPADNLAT
Experimental: as §1, §2, §3, §4, §5, §6, §7, §8, §9, §10, §11

[6] = biological target: T4, rat VPAC2 receptor (Rattus norvegicus, UniProt P35000); assay: Rat VPAC2 in vitro potency (cAMP generation, DiscoveRx) in transiently transfected CHO-PO cells; format: cell-based; settings: CHO-PO cells transiently transfected with rat VPAC2; read-out: rVPAC2 in vitro potency (cAMP generation) EC50
T4 construct: expressed in transfected cells; host or cells: CHO-PO cells, transient
T4 sequence (P35000 23-437): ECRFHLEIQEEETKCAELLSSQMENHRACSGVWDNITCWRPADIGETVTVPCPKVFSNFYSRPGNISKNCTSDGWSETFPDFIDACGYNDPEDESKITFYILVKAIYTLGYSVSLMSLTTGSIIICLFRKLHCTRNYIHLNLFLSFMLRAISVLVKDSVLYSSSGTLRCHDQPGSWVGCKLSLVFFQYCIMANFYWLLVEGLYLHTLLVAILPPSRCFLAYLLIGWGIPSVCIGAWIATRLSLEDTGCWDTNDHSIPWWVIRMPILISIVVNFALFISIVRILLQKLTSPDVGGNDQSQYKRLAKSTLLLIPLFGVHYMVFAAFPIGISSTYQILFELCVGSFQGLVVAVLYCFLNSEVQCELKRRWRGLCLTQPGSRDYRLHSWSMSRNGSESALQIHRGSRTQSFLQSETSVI
Experimental: (§12) Rat receptor selectivity is estimated by comparing functional potency (cAMP generation) in CHO-PO cells transiently expressing rat VPAC1 or rat VPAC2 receptors. CHO-PO cells transiently expressing rat VPAC1 or VPAC2, are seeded with 10,000 cells/well three days before the assay. The cells are kept in 200 μL culture medium. […] The stimuli are present for 30 minutes. The assay buffer is then gently removed.

[7] = Pharmacokinetic profiles of PEGylated peptides, plasma peptide by RIA; format: in vivo, Fisher 344 rats
Experimental: Pharmacokinetic profiles of PEGylated peptides. Healthy Fisher 344 rats (3 animals per group) are injected with 100 μg compound/kg (compound amount based on peptide content and dissolved in PBS buffer). […] PK parameters are then calculated using a model-independent method (WinNonlin Pro, Pharsight Corp., Mountain View, Calif., USA).

[8] = biological target: T5, rat VPAC1 receptor (Rattus norvegicus, UniProt P30083); assay: Rat VPAC1 in vitro potency (cAMP generation, DiscoveRx) in transiently transfected CHO-PO cells; format: cell-based; settings: CHO-PO cells transiently transfected with rat VPAC1; read-out: rVPAC1 in vitro potency (cAMP generation) EC50
T5 construct: expressed in transfected cells; host or cells: CHO-PO cells, transient
T5 sequence (P30083 31-459): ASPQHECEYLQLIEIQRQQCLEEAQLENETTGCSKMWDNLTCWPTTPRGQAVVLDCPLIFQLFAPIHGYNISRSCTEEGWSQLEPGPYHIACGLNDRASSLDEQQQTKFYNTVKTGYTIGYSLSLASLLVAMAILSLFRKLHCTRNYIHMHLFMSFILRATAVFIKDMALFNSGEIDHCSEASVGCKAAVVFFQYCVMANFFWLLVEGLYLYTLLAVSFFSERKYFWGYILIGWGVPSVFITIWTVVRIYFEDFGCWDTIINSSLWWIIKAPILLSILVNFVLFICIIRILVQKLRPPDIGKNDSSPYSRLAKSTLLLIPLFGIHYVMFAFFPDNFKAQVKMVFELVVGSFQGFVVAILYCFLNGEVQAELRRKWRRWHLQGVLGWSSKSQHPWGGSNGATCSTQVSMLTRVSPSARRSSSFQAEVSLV
Experimental: as §12

[9] = Fisher 344 rats, 100 μg compound/kg, plasma RIA, mean N = 3

Substance | EC50 [2] [nM] | IC50 [3] [nM] | IC50 [4] [nM] | further results
P219 (Hexanoyl-HSDAVFTDNYTRLRRQVAAK(PEG 20 kDa)RYLQSIRNGGPSSGAPPPS) [Compound P219] |  |  |  | Estimated 72 h stability (%) [1]: 45.6%
P247 (HSDAVFTDNYTRLRRQVAARKYLQSIRNGGPSSGAPPPS; not fully specified (residue 21, N-terminus)) [Compound P247] |  |  |  | Estimated 72 h stability (%) [1]: 16.7%
P300 (Hexanoyl-HSDAVFTDNYTRLR[Aib]QVAA[Aib]KYLQSIKNKRYGGPSSGAPPPC(PEG 40 kDa)-NH2) [Agonist P300] | 6.62 | 1.76 | > 3000 | IC50 [5]: > 25000 nM; EC50 [6]: 0.0058 µM
P247 (HSDAVFTDNYTRLRRQVAARKYLQSIRNGGPSSGAPPPS; not fully specified (residue 21, N-terminus)) [Agonist P247] | 133 | 353 | > 25000 | 
P217 (Hexanoyl-HSDAVFTDNYTRLRK(PEG 20 kDa)QVAAK(PEG 20 kDa)RYLQSIRNGGPSSGAPPPS) [Agonist P217] | > 3000 |  |  | 
P300 (Hexanoyl-HSDAVFTDNYTRLR[Aib]QVAA[Aib]KYLQSIKNKRYGGPSSGAPPPC(PEG 40 kDa)-NH2) [Compound P300] |  |  |  | Cl/F ([7]; rat, in vivo): 0.072 L/h/kg; Tmax ([7]; rat, in vivo): 10 h; T½ ([7]; rat, in vivo): 15 h; Vd/F ([7]; rat, in vivo): 1.557 L/kg
P246 (Hexanoyl-HSDAVFTDNYTRLRRQVAAK(PEG 40 kDa)RYLQSIRNGGPSSGAPPPS) [Agonist P246] | 398 | > 1000 | > 25000 | 
P219 (Hexanoyl-HSDAVFTDNYTRLRRQVAAK(PEG 20 kDa)RYLQSIRNGGPSSGAPPPS) [Agonist P219] | 25.5 | 67.9 | > 25000 | 
C6-HSDAVFTDNYThRLRAibQVAAAibKYLQSIhRNhRhRYGGPSSGAPPPC(PEG40K)-NH2 (HSDAVFTDNYTXLRXQVAAXKYLQSIXNXXYGGPSSGAPPPC; non-natural residues) [Agonist P340] | 7.74 | 4.76 | > 3000 | IC50 [5]: > 25000 nM; EC50 [8]: 0.117 µM; EC50 [6]: 0.004 µM; AUC0-last [7, 9]: 0.515 µg·h/mL; Cmax [7, 9]: 0.044 µg/mL; Tmax [7, 9]: 6 h
P245 (HSDAVFTDNYTRLRKQVAARRYLQSIRNGGPSSGAPPPS; not fully specified (residue 15, N-terminus)) [Agonist P245] | 450 | 921 | > 25000 | 
C6-HSDAVFTDNYTRLRAibQVAAKAibYLQSIKNKRYGGPSSGAPPPC(PEG40K)-NH2 (Hexanoyl-HSDAVFTDNYTRLR[Aib]QVAAK[Aib]YLQSIKNKRYGGPSSGAPPPC(PEG 40 kDa)-NH2) [Agonist P286] | 6.65 | 0.46 | > 3000 | IC50 [5]: > 25000 nM; Estimated 72 h stability (%) ([1]; after 72 h in rat serum at 37 C, values >100% may represent release of intact peptide from the PEG conjugate): 60.5%
P217 (Hexanoyl-HSDAVFTDNYTRLRK(PEG 20 kDa)QVAAK(PEG 20 kDa)RYLQSIRNGGPSSGAPPPS) [Compound P217] |  |  |  | Cl/F ([7]; rat, in vivo): 0.007 L/h/kg; Tmax ([7]; rat, in vivo): 20 h; T½ ([7]; rat, in vivo): 49 h; Vd/F ([7]; rat, in vivo): 0.421 L/kg
